How the values were obtained:
[1] = target: SARS-CoV-1 spike protein (SARS-CoV-1) (UniProt P59594); test: cell-based or functional assay
[2] = target: WIV1 spike protein (bat SARS-like coronavirus WIV1); test: cell-based or functional assay
[3] = target: HIV-1 Env peptide, biotinylated (negative control) (HIV-1); test: DELFIA on captured biotin-peptide; set-up: unit not given beside the values

Row | Substance | pseudovirus neutralization Emax (% neutralization) [1] | pseudovirus neutralization Emax (% neutralization) [2] | AUC [3]
1 | Bebtelovimab (antibody) | 8 | 6.99 | –
2 | isotype control (palivizumab variable regions expressed as human IgG1 with LS mutation in the Fc region) (antibody) | – | – | 41500

From patent US20240360203A1
